How the values were obtained:
[1] = biological target: the molecule itself; test: SEC-MALS; Superdex 200 Increase 10/300 GL, 0.70 mL/min, Buffer W (100 mM Tris/HCl pH 8, 150 mM NaCl, 1 mM EDTA), room temperature; injected at 5.6 mg/mL (CsoSCA), 0.9 mg/mL (CsoSCA-N), 1 mg/mL (CsoSCA^ΔC), 1.9 mg/mL (CsoSCA-C)
[2] = biological target: T1, CsoS4A-CsoS1A minishell (Construct 4, S4A-S1A) (Halothiobacillus neapolitanus, UniProt O85043 1-83; P45689 1-98); test: co-purification with assembled minishells (sucrose cushion and gradient, anion exchange), immunoblot; CsoSCA constructs coexpressed with minishell constructs in E. coli TOP10; minishells purified; samples normalised to CsoS1A; anti-His blot; conditions: partners not purified
T1 construct: CsoS4A, shell pentamer of H. neapolitanus; CsoS1A, major shell hexamer of H. neapolitanus; Icosahedral shells, T = 3 and T = 4 populations; also called minishells; mini-α-shells; source: E. coli TOP10, purified (sucrose cushion and gradient, HiTrap Q FF anion exchange)
T1 sequence 1: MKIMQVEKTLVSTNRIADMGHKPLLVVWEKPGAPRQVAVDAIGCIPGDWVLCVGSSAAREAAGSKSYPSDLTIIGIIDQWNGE
T1 sequence 2: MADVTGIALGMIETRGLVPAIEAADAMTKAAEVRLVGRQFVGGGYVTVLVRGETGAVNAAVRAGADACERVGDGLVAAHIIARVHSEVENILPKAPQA

[3] = biological target: the molecule itself; test: cryo-EM structure; single-particle cryo-EM of purified T = 4 minishell/CsoSCA^ΔC (2.36 Å symmetry relaxed) and minishell/CsoSCA-C (3.05 Å); internal density seen at low contour, disordered

Binder | stoichiometry N [3] | other results
Twin-Strep-GB1-CsoSCA (Halothiobacillus neapolitanus carboxysomal carbonic anhydrase) (enzyme, CsoSCA, alpha-carboxysomal beta-class carbonic anhydrase of Halothiobacillus neapolitanus; UniProt O85042; the domain scheme runs from residue 1 to 514; Vector pETM11; TEV protease was used to remove the tags only for DLS; also called HnCsoSCA; source: Superdex 200 for cryo-EM; not shown: Twin-Strep, N-terminal, kept) NTRNTRSKQRAPFGVSSSVKPRLDLIEQAPNPAYDRHPACITLPERTCRHPLTDLEANEQLGRCEDSVKNRFDRVIPFLQVVAGIPLGLDYVTRVQELAQSSLGHTLPEELLKDNWISGHNLKGIFGYATAKALTAATEQFSRKIMSEKDDSASAIGFFLDCGFHAVDISPCADGRLKGLLPYILRLPLTAFTYRKAYAGSMFDIEDDLAQWEKNELRRYREGVPNTADQPTRYLKIAVYHFSTSDPTHSGCAAHGSNDRAALEAALTQLMKFREAVENAHCCGASIDILLIGVDTDTDAIRVHIPDSKGFLNPYRYVDNTVTYAQTLHLAPDEARVIIHEAILNANRSDGWAKGNGVASEGMRRFIGQLLINNLSQIDYVVNRHGGRYPPNDIGHAERYISVGDGFDEVQIRNLAYYAHLDTVEENAIDVDVGIKIFTKLNLSRGLPIPIAIHYRYDPNVPGSRERTVVKARRIYNAIKERFSSLDEQNLLQFRLSVQAQDIGSPIEEVASA | – | stoichiometry N [1]: 6
CsoSCA-His6 (CsoSCA fused to a C-terminal His6 tag) (enzyme, Halothiobacillus neapolitanus, UniProt O85042 1-514, looked up, CsoSCA of H. neapolitanus, UniProt O85042; called full-length CsoSCA in the discussion; also called full-length CsoSCA; source: E. coli TOP10, coexpressed with minishell constructs, co-purified with minishells; not shown: His6, C-terminal, kept) MNTRNTRSKQRAPFGVSSSVKPRLDLIEQAPNPAYDRHPACITLPERTCRHPLTDLEANEQLGRCEDSVKNRFDRVIPFLQVVAGIPLGLDYVTRVQELAQSSLGHTLPEELLKDNWISGHNLKGIFGYATAKALTAATEQFSRKIMSEKDDSASAIGFFLDCGFHAVDISPCADGRLKGLLPYILRLPLTAFTYRKAYAGSMFDIEDDLAQWEKNELRRYREGVPNTADQPTRYLKIAVYHFSTSDPTHSGCAAHGSNDRAALEAALTQLMKFREAVENAHCCGASIDILLIGVDTDTDAIRVHIPDSKGFLNPYRYVDNTVTYAQTLHLAPDEARVIIHEAILNANRSDGWAKGNGVASEGMRRFIGQLLINNLSQIDYVVNRHGGRYPPNDIGHAERYISVGDGFDEVQIRNLAYYAHLDTVEENAIDVDVGIKIFTKLNLSRGLPIPIAIHYRYDPNVPGSRERTVVKARRIYNAIKERFSSLDEQNLLQFRLSVQAQDIGSPIEEVASA | – | fold copurified CsoSCA, against minishells with CsoS2 [2]: ≥ 4 fold
CsoS4A (shell pentamer) (natural protein, Halothiobacillus neapolitanus, CsoS4A, alpha-carboxysome shell vertex protein of H. neapolitanus; also called CsoS4A pentamer; source: E. coli TOP10, expressed from the minishell construct, in purified minishells) MKIMQVEKTLVSTNRIADMGHKPLLVVWEKPGAPRQVAVDAIGCIPGDWVLCVGSSAAREAAGSKSYPSDLTIIGIIDQWNGE | 5 | –
CsoS1A (the major shell hexamer) (natural protein, Halothiobacillus neapolitanus, CsoS1A, major alpha-carboxysome shell protein of H. neapolitanus; also called CsoS1A shell hexamer; source: E. coli TOP10, expressed from the minishell construct; in lysate (pull-down) and in purified minishells (cryo-EM)) MADVTGIALGMIETRGLVPAIEAADAMTKAAEVRLVGRQFVGGGYVTVLVRGETGAVNAAVRAGADACERVGDGLVAAHIIARVHSEVENILPKAPQA | 6 | –

— article PMC12646314, “Structure and encapsulation of carbonic anhydrase within the α-carboxysome” (Proceedings of the National Academy of Sciences of the …, 2025)
